In paper PMC5457487, “Structural Basis for Mitotic Centrosome Assembly in Flies” (Cell, 2017):
Positions count from the first letter of the chain named. Names may count otherwise.

B1: Cnn CM2 WT (GGS-H1082-L1148) (domain or fragment, Drosophila melanogaster)
chain: GGSHDCAKVDLENAELRRKLIRTKRAFEDTYEKLRMANKAKAQVEKDIKNQILKTHNVLRNVRSNMENEL
notes: GGS motif left at the N terminus after TEV cleavage; Centrosomin (Cnn), Drosophila, CM2 domain, aa1082-1148; The dimer holds a Zn2+ ion coordinated by H1082 and C1084; also called Cnn-motif 2 domain; Cnn_(1082-1148); source: E. coli C41 (DE3), purified (Ni-NTA, TEV cleavage, SEC); not shown: His-tagged lipoyl domain (Bacillus stearothermophilus dihydrolipoamide acetyltransferase), N-terminal, …
B2: CM2-L1137E (domain or fragment, Drosophila melanogaster)
chain: B1 chain with L59E
notes: GGS motif left after TEV cleavage, as told for the WT CM2 construct of the same vector; Centrosomin (Cnn), Drosophila, CM2 domain, aa1082-1148, L1137E; also called CM2 (aa1082-1148 L1137E); source: E. coli C41 (DE3), purified; not shown: His-tagged lipoyl domain (Bacillus stearothermophilus dihydrolipoamide acetyltransferase), N-terminal, cleaved
B3: CM2-T1133E (domain or fragment, Drosophila melanogaster)
chain: B1 chain with T55E
notes: GGS motif left after TEV cleavage, as told for the WT CM2 construct of the same vector; Centrosomin (Cnn), Drosophila, CM2 domain, aa1082-1148, T1133E; also called CM2 (aa1082-1148 T1133E); source: E. coli C41 (DE3), purified; not shown: His-tagged lipoyl domain (Bacillus stearothermophilus dihydrolipoamide acetyltransferase), N-terminal, cleaved
B4: CM2-I1126E (domain or fragment, Drosophila melanogaster)
chain: B1 chain with I48E
notes: GGS motif left after TEV cleavage, as told for the WT CM2 construct of the same vector; Centrosomin (Cnn), Drosophila, CM2 domain, aa1082-1148, I1126E; also called CM2 (aa1082-1148 I1126E); source: E. coli C41 (DE3), purified; not shown: His-tagged lipoyl domain (Bacillus stearothermophilus dihydrolipoamide acetyltransferase), N-terminal, cleaved
B5: Cnn LZ (GPM-D490-L552) (domain or fragment, Drosophila melanogaster)
chain: GPMDQQNSAVIGQLRLELQQARTEVETADKWRLECVDVCSVLTNRLEELAGFLNSLLKHKDVLGVL
notes: source: E. coli, purified as complex with CM2; not shown: His6, N-terminal, cleaved; MBP, N-terminal, cleaved
B6: Cnn LZ WT (GPM-D490-K544) (domain or fragment, Drosophila melanogaster)
chain: GPMDQQNSAVIGQLRLELQQARTEVETADKWRLECVDVCSVLTNRLEELAGFLNSLLK
notes: Centrosomin (Cnn), Drosophila, LZ domain, aa490-544; Homo-tetramer alone in solution; a parallel homo-dimer in the 2:2 complex with CM2; also called LZ domain; leucine zipper; source: E. coli B834 (DE3), purified (Ni-NTA, SEC; tag cleaved with GST-3C protease, reverse Ni-NTA, SEC); not shown: His6, N-terminal, cleaved; MBP, N-terminal, cleaved
B7: LZ-L535E (domain or fragment, Drosophila melanogaster)
chain: B6 chain with L49E
notes: N-terminal residues as printed for the WT LZ construct of the same vector; Centrosomin (Cnn), Drosophila, LZ domain, aa490-544, L535E; also called LZ (aa490-544 L535E); Cnn_(490-544) L535E; source: E. coli B834 (DE3), purified; not shown: His6, N-terminal, cleaved; MBP, N-terminal, cleaved
B8: MBP-PReM (domain or fragment, Drosophila melanogaster, UniProt P54623-2 403-608, looked up)
chain: QLQTEVKKKTANLQNLVNKELWEKNREVERLTKLLANQQKTLPQISEESAGEADLQQSFTEAEYMRALERNKLLQRKVDVLFQRLADDQQNSAVIGQLRLELQQARTEVETADKWRLECVDVCSVLTNRLEELAGFLNSLLKHKDVLGVLAADRRNAMRKAVDRSLDLSKSLNMTLNITATSLADQSLAQLCNLSEILYTEGDASH
notes: Centrosomin (Cnn), Drosophila, phospho-regulated multimerization (PReM) domain, aa403-608; also called MBP-PReM fusion; Cnn-PReM (aa403-608); source: E. coli B834 (DE3), purified (Ni-NTA, SEC); not shown: MBP, N-terminal, kept

How the values were obtained:
[1] = molecular target: the molecule itself; assay: SEC-MALS; S75 10/300 column; 50 mM Tris-HCl pH7.5, 150 mM NaCl, 10 μM ZnCl2, 5 mM β-mercaptoethanol; proteins alone or mixed
[2] = molecular target: B1; assay: crystal structure; LZ:CM2 complexes of various LZ lengths and LZ-L535E:CM2; sitting drops, 21°C; settings: both partners purified
[3] = molecular target: B1; assay: SEC-MALS; S75 10/300 column; 50 mM Tris-HCl pH7.5, 150 mM NaCl, 10 μM ZnCl2, 5 mM β-mercaptoethanol; proteins alone or mixed; settings: both partners purified
[4] = molecular target: the molecule itself; assay: SEC-MALS; Superose 6 column; MBP-PReM apo or with addition of CM2 WT or point mutants; 50 mM Tris-HCl pH7.5, 150 mM NaCl, 10 μM ZnCl2, 5 mM β-mercaptoethanol

| Binder | stoichiometry N [1] | also measured |
| --- | --- | --- |
| B1 | 2 | – |
| B2 | 2 | – |
| B3 | 2 | – |
| B4 | 2 | – |
| B5 | – | binding result [2]: binds |
| B6 | 4 | stoichiometry N [3]: 1 LZ per CM2 (printed as 2:2) |
| B7 | – | stoichiometry N [3]: 1 LZ per CM2 (printed as 2:2) |
| B8 | – | stoichiometry N [4]: 2 |
